Results as given in patent US8933202B2, “AXL antibodies” (U3 Pharma GmbH, priority 2007, dated 2015).

Tests used:
NIH3T3-pLXSN control = experiment: Primary FACS screen of hybridoma antibodies, binding to mock control cells
Procedure: Monoclonal rat anti-AXL antibodies were raised by injection of approximately 10×10^6 frozen cells of RatI-AXL cl.2 both i.p. and subcutaneously into Lou/C or Long Evans rats. After an 8-week interval, a final boost was given i.p and subcutaneously 3 d before fusion. Fusion of the myeloma cell line P3X63-Ag8.653 with the rat immune spleen cells was performed according to standard procedures and yielded 105 hybridomas. After 2 weeks, first supernatants from hybridomas were collected and tested in a primary FACS screen for binding to NIH3T3-AXL cl.7 fibroblasts versus NIH3T3-Mock control cells. Clones positive for AXL binding were further cultivated. From 50 ml supernatant of these clones, antibodies were purified and re-analyzed for specific binding to AXL on NIH3T3-AXL cl.7 fibroblasts versus NIH3T3-Mock control cells. Purified antibodies specifically binding to NIH3T3-AXL cl. 7 fibroblasts but not NIH3T3-Mock control cells were furthermore tested in Akt-Kinase phosphorylation ELISAs, and ELISAs to determine the isotype were performed. For purification of rat antibodies, supernatants were spun for 20 minutes at 5,000 g and subsequently sterile filtered. 500 μl of protein G sepharose FF were added and incubated at 4° C. for at least 1 h on a spinning wheel. […]

human AXL-ECD = molecular target: T1, human AXL-ECD (Homo sapiens, UniProt P30530); experiment: Competition ELISA on AXL-ECD coated plates; format: binding; settings: 10 μg/ml unbiotinylated, 0.5 μg/ml biotinylated antibody
T1 construct: purchased R&D Systems 154-AL
T1 sequence (P30530 26-451 limits assumed): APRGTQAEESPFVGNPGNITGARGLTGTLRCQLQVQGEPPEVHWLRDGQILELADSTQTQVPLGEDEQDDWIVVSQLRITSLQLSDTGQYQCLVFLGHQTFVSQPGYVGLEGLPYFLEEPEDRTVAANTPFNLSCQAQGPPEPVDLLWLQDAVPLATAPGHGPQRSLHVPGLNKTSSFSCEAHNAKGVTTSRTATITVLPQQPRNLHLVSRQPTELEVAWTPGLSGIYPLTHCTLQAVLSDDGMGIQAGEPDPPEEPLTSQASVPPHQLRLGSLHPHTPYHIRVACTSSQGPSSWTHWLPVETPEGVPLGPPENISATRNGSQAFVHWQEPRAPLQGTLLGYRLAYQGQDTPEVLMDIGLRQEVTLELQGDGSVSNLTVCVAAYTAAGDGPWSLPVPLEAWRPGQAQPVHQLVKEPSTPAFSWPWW
Procedure: Therefore binding of biotinylated anti-AXL antibodies to AXL-ECD domain-coated plates preincubated with anti-AXL antibodies was determined in a competition ELISA. […] On day 1, black 96 well Maxi-Sorp plates (Nunc) were coated with 100 μl/well of 1 μg/ml human AXL-ECD (R&D Systems #154-AL) in PBS over night at 4° C. […] After washing 6× with wash buffer (PBS, 0.1% TWEEN-20), 80 μl/well AP-conjugated Streptavidin (Chemicon #SA110) diluted 1:4,000 in blocking buffer were added, incubated for 20 min at room temperature washed again 6× with wash buffer and finally washed once with PBS. For detection, 100 μl/well Attophos substrate solution (Roche #11681982) were added. Using a Victor plate reader (Perkin Elmer), the fluorescence of each well was collected at an excitation wavelength of 430 nm an emission wavelength of 580 nm.

[1] = tested on: NCI-H292 lung cancer cells; experiment: Wound healing/scratch assay; format: cell-based, human; settings: 10 μg/ml antibody, 24 h, compared to isotypic control antibody
Source text: To examine the migration and proliferation rates of different cells and culture conditions, in vitro wound healing/scratch assays are being employed for many years. These assays generally involve growing a confluent cell monolayer first. A small area is then disrupted and a group of cells are being destroyed or displaced by scratching a line through the layer with, for example, a pipette tip. The open gap is then inspected microscopically over time as the cells move in and fill the damaged area (“healing”). In brief, 1.5×10^6 NCI-H292 lung cancer cells were seeded per well of a 12 well dish and cultured in normal growth medium (RPMI, 10% FCS). After 8 h, cells were rinsed with PBS and starved in low serum medium (RPMI, 0.5% FCS) over night for 24 h. Using a sterile 200 μl pipette tip, three separate uniform wounds per well were scratched through the confluent NCI-H292 cell monolayers. […] Cells were permitted to migrate into the area of clearing for 24 h, washed once with PBS and fixed with ice cold Methanol (100%) at −20° C. After cells were stained with crystal violet (0.5% in 20% Methanol), rinsed with water and dried over night, photos of the wounds were taken.

AXL = molecular target: T2, AXL (Homo sapiens, UniProt P30530); experiment: AXL receptor tyrosine phosphorylation ELISA; format: cell-based; design: expressed in transfected cells; host or cells: NIH3T3-AXL cl.7 (pLXSN-hAXL) and NCI-H292 lung cancer cells (endogenous AXL); settings: 10 μg/ml antibody, 400 ng/ml Gas6; NIH3T3-AXL cl.7 fibroblasts and NCI-H292 lung cancer cells
T2 sequence (P30530 26-894): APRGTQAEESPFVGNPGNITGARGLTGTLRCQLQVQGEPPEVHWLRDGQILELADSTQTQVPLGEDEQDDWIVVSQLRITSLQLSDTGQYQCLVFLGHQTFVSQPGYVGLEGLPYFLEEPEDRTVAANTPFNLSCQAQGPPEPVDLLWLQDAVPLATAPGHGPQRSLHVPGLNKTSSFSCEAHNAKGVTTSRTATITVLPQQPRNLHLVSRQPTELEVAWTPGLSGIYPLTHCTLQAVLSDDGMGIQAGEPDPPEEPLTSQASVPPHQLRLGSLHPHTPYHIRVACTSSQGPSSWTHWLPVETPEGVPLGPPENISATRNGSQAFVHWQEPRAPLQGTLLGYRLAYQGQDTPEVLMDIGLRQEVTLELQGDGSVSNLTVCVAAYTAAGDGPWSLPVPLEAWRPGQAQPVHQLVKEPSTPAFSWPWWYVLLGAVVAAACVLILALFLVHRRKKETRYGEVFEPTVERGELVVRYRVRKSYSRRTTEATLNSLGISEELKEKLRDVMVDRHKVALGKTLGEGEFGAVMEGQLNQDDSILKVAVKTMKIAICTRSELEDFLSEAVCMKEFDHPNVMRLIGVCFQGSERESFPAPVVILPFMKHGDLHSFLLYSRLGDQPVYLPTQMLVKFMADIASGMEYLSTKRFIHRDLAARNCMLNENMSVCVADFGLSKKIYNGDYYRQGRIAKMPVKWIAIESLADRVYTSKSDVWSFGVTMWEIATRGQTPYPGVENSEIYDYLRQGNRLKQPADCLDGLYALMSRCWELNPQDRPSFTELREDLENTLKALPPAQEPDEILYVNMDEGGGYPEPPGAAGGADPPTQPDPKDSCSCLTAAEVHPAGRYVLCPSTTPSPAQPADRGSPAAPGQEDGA
Procedure: ELISA experiments were performed in order to investigate whether the rat anti-AXL antibodies of the invention are able to block ligand Gash-mediated activation of AXL. Gas6-mediated AXL activation was detected by increased receptor tyrosine phosphorylation. In brief, on day 1, 3×10^4 cells per well were seeded in normal growth medium in flat-bottom 96 well plates. The next day, growth medium was replaced by serum-free medium to starve cells over night for 24 h. Also over night, black Maxi-Sorp 96 well plates (Nunc) were coated with mouse anti-phospho-tyrosine antibody 4G10 at 2 μg/ml PBS and 4° C. On day 3, the 4G10 antibody solution was removed and Maxi-Sorp wells were blocked with PBS, 0.5% BSA for at lest 4 h at room temperature. […] Medium was then flicked out and cells were lysed in lysis buffer (50 mM HEPES, pH 7.5, 150 mM NaCl, 1 mM EDTA, 10% glycerine, and 1% Triton X-100) supplemented with phosphatase and protease inhibitors (10 mM Na4P2O7, 1 mM phenylmethylsulfonyl fluoride, 1 mM orthovanadate, 1 mM NaF, and 0.5% aprotinin) for 30 min on ice. […] Using a Victor plate reader (Perkin Elmer), the fluorescence of each well was collected at an excitation wavelength of 430 nm and an emission wavelength of 580 nm.

B1: 10D12: antagonistic rat anti-AXL monoclonal antibody (antibody, V domains shown)
VL: DIQMTQAPSSLPASLGDRVTIACRASQDIGNYLRWFQQKPGKSPRLMISGATNLAAGVPSRFSGSRSGSDYSRTISSLESEDMADYYCLQSKESPWTFGGGTKLELK
VH: EVQLQESGPGLVKPSQSLSLTCSVTGYSITSNYWGWIRKFPGNKMEWMGYITNSGGTAYNPSLKSRISITRDTSKNQFFLQLNSVIPEDSATYFCSRTPWDWGQGVMVTVSS
- FACS shift NIH3T3-pLXSN control (NIH3T3-pLXSN control): 0.5
- competition with antagonistic anti-AXL antibodies for binding to AXL-ECD (human AXL-ECD): compete with each other for the same or structurally adjacent epitopes
- re-population of the cleared area (wound closure) [1]: reduced the re-population of the cleared area
- ligand-mediated AXL activation (phosphorylation) (AXL): able to block or reduce ligand-mediated AXL activation
